# Where a chain is given by its changes, count along the chain named. Names and notes keep the numbering of the source. No end group written: not given here. *: point of attachment. 5FAM = O=C1OC2(c3ccc(O)cc3Oc3cc(O)ccc32)c2ccc(C(=O)*)cc21; GABA = NCCCC(=O)O
# T1: Sumo-ELL2^Occ (human, UniProt O00472 519-640)
# T1 sequence (looked up): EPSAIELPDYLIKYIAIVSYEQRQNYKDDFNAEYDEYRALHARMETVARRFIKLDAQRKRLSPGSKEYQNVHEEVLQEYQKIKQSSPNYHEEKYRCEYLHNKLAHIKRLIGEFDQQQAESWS
# T2: ELL2^Occ (ELL2 residues 519–640), the ELL2 part of the crystallised fusion (human, UniProt O00472 519-640, selenomethionine (SeMet crystals used for phasing and refinement))
# T2 sequence (looked up): T1 sequence (looked up)
# T3: Sumo-ELL2^Occ, wild type (human, UniProt O00472 519-640)
# T3 sequence (looked up): T1 sequence (looked up)
# B1: GST-ELL2 (519–640) K625T (domain or fragment, human, UniProt O00472 519-640, looked up)
# chain: T1 sequence (looked up) with K107T
# B2: GST-ELL2 (519–640) H608E (domain or fragment, human, UniProt O00472 519-640, looked up)
# chain: T1 sequence (looked up) with H90E
# B3: GST-ELL2 (519–640) H559E (domain or fragment, human, UniProt O00472 519-640, looked up)
# chain: T1 sequence (looked up) with H41E
# B4: His6-AFF4^ELLBow L331D (domain or fragment, human, UniProt Q9UHB7 301-351, looked up)
# chain: PSQPLDASASGDVSCVDEILKEMTHSWPPPDTAIHTPCKTEPSKFPFPTKE
# B5: His6-AFF4^ELLBow T332K (domain or fragment, human, UniProt Q9UHB7 301-351, looked up)
# chain: B4 chain with D31L, T32K
# B6: His6-AFF4^ELLBow K321P (domain or fragment, human, UniProt Q9UHB7 301-351, looked up)
# chain: B4 chain with K21P, D31L
# B7: His6-AFF4^ELLBow I319D/L320D (domain or fragment, human, UniProt Q9UHB7 301-351, looked up)
# chain: B4 chain with I19D, L20D, D31L
# B8: His6-AFF4^ELLBow M323D (domain or fragment, human, UniProt Q9UHB7 301-351, looked up)
# chain: B4 chain with M23D, D31L
# B9: His6-AFF4^ELLBow P342D (domain or fragment, human, UniProt Q9UHB7 301-351, looked up)
# chain: B4 chain with D31L, P42D
# B10: His6-AFF4^ELLBow F345D/F347D (domain or fragment, human, UniProt Q9UHB7 301-351, looked up)
# chain: B4 chain with D31L, F45D, F47D
# B11: His6-AFF4^ELLBow D317P/E318P (domain or fragment, human, UniProt Q9UHB7 301-351, looked up)
# chain: B4 chain with D17P, E18P, D31L
# B12: His6-AFF4^ELLBow L331D/I334D (domain or fragment, human, UniProt Q9UHB7 301-351, looked up)
# chain: B4 chain with I34D
# B13: His6-AFF4^ELLBow I334D (domain or fragment, human, UniProt Q9UHB7 301-351, looked up)
# chain: B4 chain with D31L, I34D
# B14: His6-AFF4^ELLBow V316D (domain or fragment, human, UniProt Q9UHB7 301-351, looked up)
# chain: B4 chain with V16D, D31L
# B15: His6-AFF4^ELLBow E322H (domain or fragment, human, UniProt Q9UHB7 301-351, looked up)
# chain: B4 chain with E22H, D31L
# B16: His6-AFF4^ELLBow W327D (domain or fragment, human, UniProt Q9UHB7 301-351, looked up)
# chain: B4 chain with W27D, D31L
# B17: AFF4^ELLBow (AFF4 residues 301–351), the AFF4 part of the crystallised fusion (domain or fragment, human, UniProt Q9UHB7 301-351, looked up)
# chain: B4 chain with D31L
# modifications: not fully specified (residue 23); cysteine pairing not given here
# B18: fluorescently labelled AFF1^ELLBow peptide 358–390 (peptide)
# peptide: {5FAM-GABA}-EILKEMTHSWPPPLTAIHTPSTAEPSKFPFPTK-NH2
# SMILES: CC[C@H](C)[C@H](NC(=O)[C@H](C)NC(=O)[C@@H](NC(=O)[C@H](CC(C)C)NC(=O)[C@@H]1CCCN1C(=O)[C@@H]1CCCN1C(=O)[C@@H]1CCCN1C(=O)[C@H](Cc1c[nH]c2ccccc12)NC(=O)[C@H](CO)NC(=O)[C@H](Cc1c[nH]cn1)NC(=O)[C@@H](NC(=O)[C@H](CCSC)NC(=O)[C@H](CCC(=O)O)NC(=O)[C@H](CCCCN)NC(=O)[C@H](CC(C)C)NC(=O)[C@@H](NC(=O)[C@H](CCC(=O)O)NC(=O)CCCNC(=O)c1ccc2c(c1)C(=O)OC21c2ccc(O)cc2Oc2cc(O)ccc21)[C@@H](C)CC)[C@@H](C)O)[C@@H](C)O)C(=O)N[C@@H](Cc1c[nH]cn1)C(=O)N[C@H](C(=O)N1CCC[C@H]1C(=O)N[C@@H](CO)C(=O)N[C@H](C(=O)N[C@@H](C)C(=O)N[C@@H](CCC(=O)O)C(=O)N1CCC[C@H]1C(=O)N[C@@H](CO)C(=O)N[C@@H](CCCCN)C(=O)N[C@@H](Cc1ccccc1)C(=O)N1CCC[C@H]1C(=O)N[C@@H](Cc1ccccc1)C(=O)N1CCC[C@H]1C(=O)N[C@H](C(=O)N[C@@H](CCCCN)C(N)=O)[C@@H](C)O)[C@@H](C)O)[C@@H](C)O
# notes: also called fluorescent peptide
# B19: His6-tagged wild-type AFF4^ELLBow (AFF4 301–351) (peptide, UniProt Q9UHB7 301-351, looked up)
# chain: B4 chain with D31L
# B20: His-tagged AFF4^ELLBow (301–351) I319D/L320D (peptide, UniProt Q9UHB7 301-351, looked up)
# chain: B4 chain with I19D, L20D, D31L
# B21: His-tagged AFF4^ELLBow (301–351) W327D (peptide, UniProt Q9UHB7 301-351, looked up)
# chain: B4 chain with W27D, D31L
# B22: His-tagged AFF4^ELLBow (301–351) M323D (peptide, UniProt Q9UHB7 301-351, looked up)
# chain: B4 chain with M23D, D31L
# B23: His-tagged AFF4^ELLBow (301–351) L331D (peptide, UniProt Q9UHB7 301-351, looked up)
# chain: B4 chain
# B24: His-tagged AFF4^ELLBow (301–351) F345D/F347D (peptide, UniProt Q9UHB7 301-351, looked up)
# chain: B4 chain with D31L, F45D, F47D
# B25: His-tagged AFF4^ELLBow (301–351) I319D/L320D/M323D (peptide, UniProt Q9UHB7 301-351, looked up)
# chain: B4 chain with I19D, L20D, M23D, D31L
# B26: His-tagged AFF4^ELLBow (301–351) double 328–329 Pro–Gly mutant (peptide, UniProt Q9UHB7 301-351, looked up)
# chain: B4 chain with P28G, P29G, D31L
# B27: His-tagged AFF4^ELLBow (301–351) E322H (peptide, UniProt Q9UHB7 301-351, looked up)
# chain: B4 chain with E22H, D31L
# B28: His-tagged AFF4^ELLBow (301–351) P342D (peptide, UniProt Q9UHB7 301-351, looked up)
# chain: B4 chain with D31L, P42D
# B29: His-tagged AFF4^ELLBow (301–351) I334D (peptide, UniProt Q9UHB7 301-351, looked up)
# chain: B4 chain with D31L, I34D
# Biological target: AFF4, endogenous (human (endogenous in HEK 293T)) (UniProt Q9UHB7)
# Experiment: not given
# Details: not given
# Chain of AFF4, endogenous (human (endogenous in HEK 293T)) (Q9UHB7 whole entry): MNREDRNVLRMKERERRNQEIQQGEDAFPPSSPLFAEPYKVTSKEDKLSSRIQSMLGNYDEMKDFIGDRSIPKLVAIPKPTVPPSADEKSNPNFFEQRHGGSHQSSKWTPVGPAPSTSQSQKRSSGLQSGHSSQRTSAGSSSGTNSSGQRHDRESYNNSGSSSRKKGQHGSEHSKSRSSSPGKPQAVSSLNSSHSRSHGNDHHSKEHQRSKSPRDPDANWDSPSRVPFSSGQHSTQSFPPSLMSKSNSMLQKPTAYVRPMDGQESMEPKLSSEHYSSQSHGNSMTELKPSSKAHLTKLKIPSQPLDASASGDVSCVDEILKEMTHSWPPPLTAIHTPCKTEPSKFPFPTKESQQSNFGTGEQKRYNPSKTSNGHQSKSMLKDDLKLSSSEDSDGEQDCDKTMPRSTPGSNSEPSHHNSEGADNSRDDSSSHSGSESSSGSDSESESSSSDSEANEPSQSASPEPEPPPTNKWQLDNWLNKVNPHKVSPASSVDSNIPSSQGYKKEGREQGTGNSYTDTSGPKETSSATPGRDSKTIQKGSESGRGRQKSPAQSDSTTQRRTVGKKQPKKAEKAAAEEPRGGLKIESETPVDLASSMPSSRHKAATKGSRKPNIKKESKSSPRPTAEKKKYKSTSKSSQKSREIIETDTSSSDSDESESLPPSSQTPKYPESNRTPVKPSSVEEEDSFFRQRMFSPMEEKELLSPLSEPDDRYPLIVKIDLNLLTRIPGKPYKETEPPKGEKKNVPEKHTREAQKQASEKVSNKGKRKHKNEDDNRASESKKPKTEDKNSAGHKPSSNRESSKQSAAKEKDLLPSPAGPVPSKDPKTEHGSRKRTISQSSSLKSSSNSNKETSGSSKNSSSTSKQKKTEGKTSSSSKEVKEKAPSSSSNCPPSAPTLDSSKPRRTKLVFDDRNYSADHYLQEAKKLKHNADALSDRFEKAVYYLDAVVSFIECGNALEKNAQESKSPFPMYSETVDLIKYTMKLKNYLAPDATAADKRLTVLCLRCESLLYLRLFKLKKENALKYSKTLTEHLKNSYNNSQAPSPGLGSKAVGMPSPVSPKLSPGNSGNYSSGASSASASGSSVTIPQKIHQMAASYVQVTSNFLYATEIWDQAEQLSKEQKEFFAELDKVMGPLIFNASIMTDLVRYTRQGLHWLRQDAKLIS
row,other (fold less than wild type),Molecule
1,5,HA-tagged ELL2^H559E/H608E/N619A/K625T (from UniProt O00472 1-640) (natural protein)

# Biological target: B19
# Experiment: pull-down
# Details: both partners purified
row,binding result,Molecule
1,binds,B1
2,binds,B2
3,binds,B3

# Biological target: Sumo-ELL2^Occ (human) (UniProt O00472)
# Experiment: fluorescence polarisation
# Details: not given
row,Kd [nM],Molecule
1,270,His6-AFF4^ELLBow P328G/P329G (from UniProt Q9UHB7 301-351) (domain or fragment)

# Biological target: Sumo-ELL2^Occ, wild type (human) (UniProt O00472)
# Experiment: fluorescence polarisation
# Details: not given
row,other [fold],Molecule
1,10,His-tagged AFF4^ELLBow (301–351) D317P/E317P (from UniProt Q9UHB7 301-351) (peptide)

# Biological target: ELL2^Occ–(Gly-Ser)4–AFF4^ELLBow (human) (UniProt O00472)
# Experiment: SEC; Hiload 16/60 (GE) gel filtration; elution volumes; 44 kDa and 17 kDa markers shown in panel a
# Details: not given
row,stoichiometry N,Molecule
1,2,ELL2^Occ–(Gly-Ser)4–AFF4^ELLBow (from UniProt O00472 519-640; Q9UHB7 301-351)

# Biological target: T1, Sumo-ELL2^Occ
# Experiment: fluorescence polarisation
# Details: both partners purified
row,Kd [nM],Molecule
1,1600 ± 310,B4
2,69 ± 37,B5
3,240 ± 60,B6
4,5400 ± 1870,B7
5,2700 ± 1140,B8
6,200 ± 50,B9
7,130 ± 58,B10
8,800 ± 180,B11
9,1900 ± 510,B12
10,670 ± 210,B13
11,230 ± 48,B14
12,130 ± 33,B15
13,370 ± 86,B16
14,4000 ± 1570,"EILKEMTHSWPPPLTAIHTPCKTEPSKFPFPTK (peptide, UniProt Q9UHB7 318-350, looked up) [AFF4 WT, 318-350 peptide]"

# Biological target: T2, ELL2^Occ (ELL2 residues 519–640), the …
# Experiment: crystal structure
# Details: both partners purified
row,binding result,Molecule
1,binds,B17

# Biological target: T3, Sumo-ELL2^Occ, wild type
# Experiment: fluorescence polarisation
# Details: both partners purified
binding result,Kd [nM],other [fold],Molecule
binds,–,–,B18
–,86,–,B19
–,–,> 25,B20
–,–,4,B21
–,–,> 25,B22
–,–,~20,B23
–,–,< 2,B24
–,> 3000,–,B25
–,–,3,B26
–,–,< 2,B27
–,–,~3,B28
–,–,8,B29
